These results are taken from patent US20110257102A1 (CASE WESTERN RESERVE UNIVERSITY, published 2011).

Several values for one entry are separate records, joined by “and”; a condition that tells them apart may be missing. Equal entries are not always repeated.

B1: GST-tagged FLNa domain 11 (other)
chain: EPAVDTSGVQCYGPGIEGQGVFREATTEFSVDARALTQTGGPHVKARVANPSGNLTETYVQDRGDGMYKVEYTPYEEGLHSVDVTYDGSPVPSSPFQVPV
notes: domain: domain 11
B2: GST-tagged FLNa domain 18 (other)
chain: RVTGDDSMRMSHLKVGSAADIPINISETDLSLLTATVVPPSGREEPCLLKRLRNGHVGISFVPKETGEHLVHVKKNGQHVASSPIPVVI
notes: domain: domain 18
B3: GST-tagged FLNa domain 21 (other)
chain: LGEGGAHKVRAGGPGLERAEAGVPAEFSIWTREAGAGGLAIAVEGPSKAEISFEDRKDGSCGVAYVVQEPGDYEVSVKFNEEHIPDSPFVVPV
notes: domain: domain 21
B4: GST-tagged FLNa domain 24 (other)
chain: PGPADASKVVAKGLGLSKAYVGQKSSFTVDCSKAGNNMLLVGVHGPRTPCEEILVKHVGSRLYSVSYLLKDKGEYTLVVKWGDEHIPGSPYRVVVP
notes: domain: domain 24
B5: GST-tagged FLNa domain 17 (other)
chain: DYVNCGHVTAYGPGLTHGVVNKPATFTVNTKDAGEGGLSLAIEGPSKAEISCTDNQDGTCSVSYLPVLPGDYSILVKYNEQHVPGSPFTA
notes: domain: domain 17
B6: GST-tagged FLNa domain 23 (other)
chain: GHGGDPGLVSAYGAGLEGGVTGNPAEFVVNTSNAGAGALSVTIDGPSKVKMDCQECPEGYRVTYTPMAPGSYLISIKYGGPYHIGGSPFKAKV
notes: domain: domain 23
B7: GST-tagged FLNa domain 20 (other)
chain: VKVTGEGRVKESITRRRRAPSVANVGSHCDLSLKIPEISIQDMTAQVTSPSGKTHEAEIVEGENHTYCIRFVPAEMGTHTVSVKYKGQHVPGSPFQFTV
notes: domain: domain 20
B8: GST-tagged FLNa domain 22 (other)
chain: SPSGDARRLTVSSLQESGLKVNQPASFAVSLNGAKGAIDAKVHSPSGALEECYVTEIDQDKYAVRFIPRENGVYLIDVKFNGTHIPGSPFKIRV
notes: domain: domain 22
B9: GST-tagged FLNa domain 19 (other)
chain: SEIGDASRVRVSGQGLHEGHTFEPAEFIIDTRDAGYGGLSLSIEGPSKVDINTEDLEDGTCRVTYCPTEPGNYIINIKFADQHVPGSPFS
notes: domain: domain 19
B10: GST-tagged FLNa domain 10 (other)
chain: VPCFDASKVKCSGPGLERATAGEVGQFQVDCSSAGSAELTIEICSEAGLPAEVYIQDHGDGTHTITYIPLCPGAYTVTIKYGGQPVPNFPSKLQV
notes: domain: domain 10

The first assay has as its target recombinant pro-PrP^23-253 (human, UniProt P04156 23-253). Kind of assay: in vitro pull-down with mAb 8H4 and protein G beads, anti-GST immunoblot. Background: A western blot detects proteins with antibodies after separation by electrophoresis.
For B1, the binding result is given as “no binding”.
B2: the binding result was “binds”.
As for B3, the binding result is “binds”.
Take B4: the binding result is recorded as “no binding”.
With B5, the binding result is “binds”.
Turning to B6, the binding result is on record as “binds”.
The same measure, in the same setting: for B7 the value was “binds”; for B8, “no binding”; for B9, “no binding”.
Take B10: the binding result is “binds”.

For another assay, the target named is filamin A (FLNa) of human tumour cell lines (endogenous) (human) (UniProt P21333). Nature of the assay: cell-based or functional assay.
With KKRPK-PrP-GPI-PSS synthetic peptide, the inhibition of cellular motility of A7 cells (wound-healing assay) was 50% and 60%.
